By Kd is commonly meant a measure of binding affinity in units of concentration. Low readings indicate tighter binding, high ones weaker binding.

The chains are these.
T1: activin A (UniProt P08476 311-426)
T1 sequence (looked up): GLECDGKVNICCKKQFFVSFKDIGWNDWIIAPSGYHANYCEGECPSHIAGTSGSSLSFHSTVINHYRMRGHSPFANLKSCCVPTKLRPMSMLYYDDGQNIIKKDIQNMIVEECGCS

T2: activin B (UniProt P09529 293-407)
T2 sequence (looked up): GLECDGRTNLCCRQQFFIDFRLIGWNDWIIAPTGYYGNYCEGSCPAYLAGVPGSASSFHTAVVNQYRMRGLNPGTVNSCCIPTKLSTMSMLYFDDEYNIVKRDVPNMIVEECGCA

B1: ActRIIB(20-134)-hFc (Fc fusion)
chain: GRGEAETRECIYYNANWELERTNQSGLERCEGEQDKRLHCYASWRNSSGTIELVKKGCWLDDFNCYDRQECVATEENPQVYFCCCEGNFCNERFTHLPEAGGPEVTYEPPPTAPTGGGTHTCPPCPAPELLGGPSVFLFPPKPKDTLMISRTPEVTCVVVDVSHEDPEVKFNWYVDGVEVHNAKTKPREEQYNSTYRVVSVLTVLHQDWLNGKEYKCKVSNKALPVPIEKTISKAKGQPREPQVYTLPPSREEMTKNQVSLTCLVKGFYPSDIAVEWESNGQPENNYKTTPPVLDSDGSFFLYSKLTVDKSRWQQGNVFSCSVMHEALHNHYTQKSLSLSPGK
notes: also called ActRIIB-hFc; hActRIIB-hFc
B2: GDF11 (ligand, UniProt O95390 299-407, looked up)
chain: NLGLDCDEHSSESRCCRYPLTVDFEAFGWDWIIAPKRYKANYCSGQCEYMFMQKYPHTHLVQQANPRGSAGPCCTPTKMSPINMLYFNDKQQIIYGKIPGMVVDRCGCS
notes: also called BMP11

Experiment [1] concerns the target T1, activin A. The experiment in a line: SPR (Biacore). (In SPR one partner is held on a chip, and binding of the other changes the refractive index at the surface.)
Experiment [2] has as its target T2, activin B. The experiment in a line: SPR (Biacore).
Experiment [3] has as its target B2. The experiment in a line: SPR (Biacore).
The target of experiment [4] is T3, ActRIIA-mFc (human, UniProt P27037 21-135).
T3 construct: also called hActRIIA-mFc; not shown: mouse Fc domain
T3 sequence (P27037 21-135): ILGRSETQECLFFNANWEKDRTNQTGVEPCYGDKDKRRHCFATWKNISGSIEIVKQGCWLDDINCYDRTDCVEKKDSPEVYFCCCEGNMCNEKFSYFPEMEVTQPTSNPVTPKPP
In words: SPR (Biacore), ligand amine-coupled on CM5 chip, fusion protein loaded in solution. The procedure:
GDF-11 or activin A were immobilized on a Biacore™ CM5 chip using standard amine-coupling procedure. ActRIIA-hFc and ActRIIA-mFc proteins were loaded onto the system, and binding was measured.

In the case of B1, the Kd in experiment [1] worked out at 0.016 nM; in experiment [2], 0.012 nM; in experiment [3] it was 0.036 nM.
Take B2: the binding result in experiment [4] is “binds”.

(Values after patent publication US20220089683A1 (ACCELERON PHARMA, published 2022).)
